Results published in a protein production outcome set (Wang et al. 2014).

Assay: label from the status in PepcDB records

| Sequence | protein production |
| --- | --- |
| MTNLISGSSYPTANLYFMQVWKIECWLRAHEFSVDETICQMVEIMTLKFEKYWEEYSDILAIAAVFDPRLKLKCLEYCFSTLDRLTSKSRLAHVRSKIYKLFKAYKKRPSSITSSSQVETLEEDIPAGYSGFYAFVSQKVGSSGKSELDIYLGEPTLDMAAFRHFNVLAYWKDNSCRFKELSSMACDVLSIPITTVASESSFSIGSGVLSKYRSSLLPENIQALICTRNWLRGFPKEGEEEEVEEEKEEEKEEEKEEA | failed |
| LSASEERFQLAVSGASAGLWDWNPKTGAMYLSPHFKKIMGYEDHELPDEITGHRESIHPDDRARVLAALKAHLEHRDTYDVEYRVRTRSGDFRWIQSRGQALWNSAGEPYRMVGWIMDVTDRKRDEDALRVSREELRRL | not failed |
| ATRRYYLGAVELSWDYMQSDLGELPVDARFPPRVPKSFPFNTSVVYKKTLFVEFTDHLFNIAKPRPPWMGLLGPTIQAEVYDTVV | failed |
| MFALEELPRIPDFTERAICELFELYASIESVQLPPQSSDATNSSSATAPGNIFSAERGPRYLGPRALVRFFTELGVDMRSLAALAFAWLGRWQYPCHCREEGFARGVRYALWALDRRQHNEPRRWEQVQATCSTLLETSIWPRESTALFERLRSAFPDAVLSYTQRSAEAALDFYLFAFDLNRQSPYRRSLSLTDARYLWKQFLSESCYLATPASPGTPAGVANQPWRYLEHFDAYLESRCGMAGTIISRDTWYWVLMFARETQVAGSSFFANYNQGDAWPVLLDGFVEYLRENKLLSS | not failed |
| MRALLLIAALLAPTAALAQQQLPLWPNGAPGFESRKAIPEQAADYWVKSVNNPSITAYLPPKETATGAALIVLPGGGHRILVIHSEGSDVAKVMNPKGVAVFVVKYRLFREEGSPYTIDHARQDAVRAVRYVRAHAAVFGVDPKRIGLMGFSAGGEAVNLAVYQGAANDPKTDAVDAVSARPDFQVLVYPGPLGVPEKVPTDTPPAFIVAANDDECCSAPPVDLLTRFRAAKVPIEFHLFQSGGHAFNMGLRSHKAALKAWPDRLFDWLADNGWLKAG | failed |
| MEFLAYFNSVISNNIFLAIILSFFAGVVASFSPCTLSSIPLLIGYVQGSEVKDNKKAFKYSLIFSIGLGITFTVIGLLTALIGKAFLGAGKFWYIILAFIMIGSGLQVLDVINLFGDKKEACKITKRREGILDAFFLGILSGILASPCATPIMAAIIAFIAASGNLVIGMIMLLMYSLGHSVLIILAGTSFGLVEKIAYSENGKKIGRVLKNILGTIIILVGLYLFYLGV | failed |
| MAENVGSDSSEFESISSSQKSYLKNCPFAGHEALPTKSTDSDNTEVLGNQISPAVVKTPILSFSSPTSLDSINDDVFRTPPENASLSSAAESEPRVGVSEIKLQGGSNLTTPFSMAETTLVSSSPSLPAENVRVSESNLKSSSSTAKTTPVSASPSVNARVSESNLNSSSSTTPVSVSPSEKVRVFETTPVSASPSEKVRVFETKCHSDSGDSVPLSSSPPSVAADDVRVPAKHLDSDSSPPTAIGRTMVLVKQRISASDNSASSSASEGTKVSKTENSGEVLPFKEIIEALLRNSGEKLNERDDKVSYVEILKQCGLKFPK | failed |
| MGRNQGAYLDPSESILMLMVAFLLVLLNAFFVLSEFALVKVRKTRLEELVKIGNSNAKLALKMSQRLDTYLSATQLGITLSSLALGWVGEPAIAKLLAALFESMDLRENPIFIHSMSVVIAFLSITFLHVVLGEIVPKSLAIAKSEKATLFAARPLHVFWVVFYPVVRLFDVIAHFFLKKMGINPKEHDGTHSEEELKIIVGESLREGIIDSVEGEIIKNAXDFSDTSAKEIMTPRKDMVCLDEENSYEENIDIVLKGHFTRYPYCKGSKDNIIGMVHIRDLLSRSIFTPKMHDFNQIVRKMIIVPESASISQILIKMKKEQIHTALVIDEYGGTAGLLTMEDIIEEIMGEISDEYDLKQEGINKLEEGVFELEGMLDLESVEEALHIEFDKECEQVTLGGYVFSLLERMPMEGDTIVSHGYSFEVLSVDGARIKRLKAVKQDQGENEA | failed |
| MSLLKNSSYILTLLSLFGFLLTWQRSAFSLFFLIPIFLTLFWEFFLFLKLRKNIIKEATLIKGSLFYRISMGDFYLYIFSFFLAIFGLVSLFLNFLNLEKIDFVFIFIILPLLMIFLKKELHLQFIDNAYNDFRIVVIASFFTALFYAFYGLFFTYNELLNLELFSRKIIAYKSASFVYFDFLSEFLHFVSNLKFFIFSYFGYLGFRALNFIFDFFNFFMFCSLLAFVFNFVLKIKIKIIVLFLCFIMVLGNYFLKEQRNNALKSEQEQILLWMNNFNFLKDNNLSLIQKEKDLFEKDLKDLREIFKKNAFEIGIWWFSKEKEDLEKRINESLK | failed |
| MGHHHHHHSHMACYIYQLPSWVLDDLCRNMDALSEWDWMEFASYVITDLTQLRKIKSMERVQGVSITRELLWWWGMRQATVQQLVDLLCRLELYRAAQIILNWKPAPEIRCPIPAFPDSVK | failed |
| MTQSQTNDGAGAGAVTTVESVPPQPQSQPQPQPQQQSNEMVLHTGSLSFSSHMSREDEEMTRSALSAFRAKEDEIEKRRMEVRERIQAQLGRVEQETKRLSTIREELESMADPRIWPSELESMADPMRKEVSVVRKKIDSVNKELKPLGSTVQKKAEQNSIFGNEMKQEREYKEALDTFNEKNREKVQLITKLMEMEQLVGESEKLRMIKLEELSKSIETV | not failed |
| GQLDLLRSNTGLLYRIKDSQNAGKMKGSDNQEKLVYQIIEDAGNKGIWSRDVRYKSNLPLTEINKILKNLESKKLIKAVKSV | not failed |
| MKLPLHKILKNGATVELDYIKPQEYEDVRRLLNVVIDEGQTYPQKQPLSQQEFAAYWLSQDAFVIRLSGEDGTQKPQTILGSFYIKPNFPGRCSHICNAGFIVQPGLRGQGIGKFMGESMLLVAAQLGYEAVMFNLVFETNIPSITLWQSLGFDIIGSVPDAAKLADGKVVKALIMYRALGV | not failed |
| MITMKISSRFSIAVHILSILKNNPSSLCTSDYMAESVNTNPVVIRKIMSYLKQAGFVYVNRGPGGAGLLKDLHEITLLDVYHAVNVVEEDKLFHIHEQPNPDCPIGANIQAVLEIILIQAQSAMEEVLRNITMGQLFETLQEKMNA | not failed |
| DVTYDGHPVPGSPYTVEASLPPDPSKVKAHGPGLEGGLVGKPAEFTIDTKGAGTGGLGLTVEGPCEAKIECSDNGDGTCSVSYLPTKPGEYFVNILFEEVHIPGSPFKADIEMPFDPS | not failed |
| MKLAIVTACPGGQVTSVLAARLLRGAAERLGWETCVEANAGSRPEGELSAEQIAEADWVLLVGVEPLAAARFVGKPVYRARPAEALADPRAFLQRAAALASVEVAGDEAGLVAPEAGAAPRIVAVTACPTGVAHTFMAAEALQLAAGQLGFALQVETQGSVGARNPLDPADIAAADVVLLAADIDVDTARFAGKKIYRCGTGVALKQARATLERALAEGQVESAGAASAVVARDEKRGVYKHL | failed |
| LNLPYDEHADAWTQVKKALAAGKRTHKPTLLVFGANWCTDCRALDKSLRNQKNTALIAKHFEVVKIDVGNFDRNLELSQAYGDPIQDGIPAVVVVNSDGKVRYTTKGGELANARKMSDQGIYDFFAKITETRGV | failed |
| VIKKEGPGWRIIFDSSRDNFSTLIGGETWAIELDKSEWKILVEVVMELCDQYKLVKEQLMGDEDITLELERRPWLAILNGDQYGWNLRLILSASGLFNRGAEVYWPRHVTNNVVNAMRSMWDSDYL | not failed |
| MSVSVKGNEQLTSLLNDWYRAMLSQQVIKATNLKKKIDEKINKLSIEPDQEHQDQNLLLYYSLLEFRYKVLTDSLGIQQNSFDTISDYDMPTDQFLQFYYHFFKSIHSTFISNYTEAEEHYKLAEKILVAIPDEIEHAEFYYRIATFYHHTYNNLASIEYANKSRAIFSKYEGYEVKTAFCNSLLGGCCIYLKQYEQAEEYLHCAIDLLQKNREEDSLLYVKNTMGWLYSDQSMSTLAIRHLSEVTEKIPTHFKAIFLQAKEHYKLGEQSTASQLIDKGLQICREIHNEEYTHHFSILKKLNENIPLEELEKIIQEGILYFEEEELWEYVVEYAELFATKCRQLENHQKVSDYFHICYQARQKSIAKGVLK | failed |
| MSLSSEVVLMKPYEKLVERFNEMAAEFLSYFPTVKSVGNLESELDKRRFVILFRAMLRLRNEVKGYNEFDAEDLTIEEQRFADYQSKYLDMSNEFAITSEKEDAESILQDIDFELELVHRDIINVMYILALLQDLKPESSSYPKDRKAVLDTMDSNPELRSKIALIDNFIKLHIDGRQSNDLPADMESDLDKYIATQKAIAIEQVATEEGIDSTLLHEYISEYEYLGKPKNEGHHHHHH | not failed |
| NGVWVIGEQREGKINPVTIELIGEGRKLADQLGKELAVVIAGYEVEKEVKELLHYSVDKVYYINDPLLKDFTTDGYAISIANLIERKKPEVVLVGATSIGRDIAPRIAGKVGTGLTADCTKLEIDSTDNKLLQTRPAFGGNLMATIVCPKNRPQMSTVRPGVMAKAVRNESETGILEVVTPELTEKMIRTRLVEILPQEKKSVN | not failed |
| MKATLFVREFLLNPRTIGAILPSSDYLAEKMMASVCFEQAKYIIEYGPGTGVFTDKILRYRHPDTVVMIIEHNREFFCILNEKYQDEKNVIIINGSAEHIETYVKEHNIPFVDYIISGLPFASLPLHVSNAILNKARYLLGVKGKFITFQYTQTKVRLFTQFFNQMTVERVYRNLPPAFVFSCYNEKLEHHHHHH | not failed |
| MSLCINPQCSKPQNPDNVLFCQTCGSELLLEGRYRVVSVLGGGGFGKTFAVNDTRTQTARVLKVLINNHPKAVELFQREAQVLALLNYPGIPTVEANGYFVYFPRNIQEPMHCLIMEKIEGLDLGEYLRQRDYRPIDEKLALQWFKEVVTILHQVHQQGLFHRDIKPSNIMLRADGRLVLIDFGTARSVTGTYIAKQAVGQVTGVISAGYTPSEQINGQAVQQSDFFALGRTFIYLLTGKEPSDPTIYNYLKDELHWRDGLLSSESNSVPPTVGYGVPPTVGDRTNILPQFADLLDQMMERLPGQRPQNTHIILQRLADIEKNLHPSSPPPPKPKGWTRRRLITVVGFSSLGLTGALAISRLLPKTTVIVSQEGGGDYKTIGAAMQNAQPGMRILVRPGLYQESLVLDKALKIIGDGAKAEIIIESKGASCLVVKTDQAEIRGLTFRSRAGTENKQYFAVDISQGQIILADCDITSDSLSGIGIHGATANPVIQKCQIHDGKQSGIYLYENSRGTIEDCDLFGNTTTEITVDAAQPIIRRCKIRQDKEGGILFRNQAQGTVEDCDIFNNNLSGIEIRDSSNPIIQKCRIHDNQQGDGILVHLNGRGTVEDCNIFGNGFSGVEIRDRGNPVIRRCNINKNKYYGVYAYKNSMGTVENCDLTGNIRSAINVDETSQLQRSGNVELEHHHHHH | failed |
| MSAEKSSADTAKKTLTIYSTMSTDSERDTFRKLAAAFEKEHSDIHVSLHFPGNDYENMMRVRMAANDLPDLFDTHGWGKIRYGEYTADLRDMKWTQDLDPNLNSILKNKSGKVYAYPINQAKDGLAYNRNILDRYGIAPPETMDDFIKALRTIKEKSKGSIVPFWFAGYDKSSFAQYYDQFATPLLITDPAHNEKKQLINGTFQWSKFTYLSEILKQMQKEKLINIDAVTAKKSQLIELMAQNKIAFTMQGGTLGQDVAQINPNVKVGIIPTPAIHPGDDPIWIGGERYTLAAWKDSPQLKEAKDFIAFMARPANAKQMAEATSLPSGLTNVKADIFYANDYEYYQDVKVEPYFDRLYLPNGMWDVLGTVGQELAADILAPQDISQKLGREYKRLREQSETQGAENNELEHHHHHH | not failed |
